Patent US20210380703A1 (RIGEL PHARMACEUTICALS, published 2021)
Changes are numbered by the printed parent chain.

B1: 368_A02 (antibody, V domains shown)
VH: EVQLLESGGGLVQPGGSLRLSCAASGFTFDSYGMNWVRQAPGKGLEWVAGINYNGGYKSYADSVKGRFTISRDNSKNTLYLQMNSLRAEDTAVYYCARAANWHDTHLDYWGQGTLVTVSS
VL: DIQMTQSPSSLSASVGDRVTITCRASQSIISYVNWYQQKPGKAPKLVIYAATSRASGVPSRFSGSGSGTDFTLTISSLQPEDFATYYCQQSYDTPLTFGGGTKVEIK
notes: Group I
B2: 367_E10 (antibody, V domains shown)
VH: B1 VH with D30S, N35H, A49S, G50S, K58T, S59G, N101T
VL: B1 VL with I30L, V47L, D93E, T94L
notes: Group II
B3: 368_B12 (antibody, V domains shown)
VH: B1 VH with N35H, A49S, G55S, K58T, N101T
VL: B1 VL with I30V, V47L, T94L
notes: Group II
B4: 368_F02 (antibody, V domains shown)
VH: B1 VH with D30S, G50S, G55S, K58T
VL: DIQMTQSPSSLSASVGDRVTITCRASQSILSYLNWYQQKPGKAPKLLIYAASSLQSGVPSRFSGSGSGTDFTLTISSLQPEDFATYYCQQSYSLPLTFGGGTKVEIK
notes: Group I
B5: 367_F06 (antibody, V domains shown)
VH: B1 VH with D30S, A49S, G50S, G55S, K58T, H106A
VL: B1 VL with I30S, V47L, A51V, T94S
notes: Group I
B6: 368_C04 (antibody, V domains shown)
VH: B1 VH with N35H, A49S, G50N, K58T, N101T
VL: B1 VL with I30L, V47L, D93S
notes: Group II
B7: 368_F10 (antibody, V domains shown)
VH: B1 VH with D30S, G55S, K58T
VL: B1 VL with I30V, V47L
notes: Group I
B8: 368_B11 (antibody, V domains shown)
VH: B1 VH with N35H, A49S
VL: B1 VL with I30L, V33L, V47L, T52S, R54L, A55Q, T94S
notes: Group I
B9: 368_B03 (antibody, V domains shown)
VH: B1 VH with S31D, A49S, K58T, H106A
VL: B1 VL with I30L, S31T, V33L, R54L, Q90H, D93E, T94N
notes: Group I
B10: 368_E05 (antibody, V domains shown)
VH: B1 VH with G33S, N35H, A49S, G50S, N101T
VL: B1 VL with I30L, V33L, D93S, T94S
notes: Group II
B11: 367_G11 (antibody, V domains shown)
VH: B1 VH with D30S, N35H, G50S, K58T, N101T
VL: B1 VL with I30L, S31T, V33L, V47L, A55H, Y92D, T94S
notes: Group II
B12: 368_B10 (antibody, V domains shown)
VH: B1 VH with N35H, G50S, K58T, H106A
VL: B1 VL with I30L, S31T, V33L, Y92D, D93E, T94L
notes: Group I
B13: 368_B04 (antibody, V domains shown)
VH: B1 VH with N35H, A49S, G50S, K58T, N101T
VL: B1 VL with I30V, V33L, D93E, T94N
notes: Group II
B14: 367_G03 (antibody, V domains shown)
VH: B1 VH with G33S, N35H, G50N, K58T, N101T
VL: B1 VL with I30V, A55H, T94L
notes: Group II
B15: 367_H01 (antibody, V domains shown)
VH: B1 VH with A49S, H106A
VL: B1 VL with I30L, S31T, V33L, T94N
notes: Group I
B16: 369_B03 (antibody, V domains shown)
VH: B1 VH with D30S, N35H, K58T, H106A
VL: B1 VL with I30L, S31T, R54L, D93E, T94L
notes: Group I
B17: 368_C12 (antibody, V domains shown)
VH: B1 VH with N35H, G50S, K58T, N101T
VL: B1 VL with I30L, S31T, V33L, V47L, Y92D, D93S, T94N
notes: Group II
B18: 368_G11 (antibody, V domains shown)
VH: B1 VH with N35H, A49S, G55S, N101T, H106A
VL: B1 VL with I30L, S31T, V33L, V47L, Y92D, D93N
notes: Group II

What was measured:
[1] = biological target: T1, biotinylated goat anti-human kappa light chain; experiment: ELISA, positive control
T1 construct: positive control of the ELISA
In short: (§1)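 Monoclonal antibodies were first applied to human or mouse ACVR2A, alongside biotinylated goat anti-human kappa light chain (positive control) and human Fc (negative control); binding was then determined by ELISA.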

[2] = biological target: T2, human ACVR2A (human, UniProt P27037 20-135, limits assumed); experiment: ELISA
T2 construct: also called activin receptor, type II A
T2 sequence (P27037 20-135 limits assumed): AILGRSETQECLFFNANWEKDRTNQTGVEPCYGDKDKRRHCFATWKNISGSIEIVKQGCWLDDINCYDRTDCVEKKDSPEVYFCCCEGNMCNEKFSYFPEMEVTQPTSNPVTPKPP
In short: as §1

[3] = biological target: mouse ACVR2A (mouse, UniProt P27038 20-135, limits assumed); experiment: ELISA
mouse ACVR2A, sequence (P27038 20-135 limits assumed): as the sequence (P27037 20-135 limits assumed) above, with K20R, V73I counted along it
In short: as §1
Note: test concentration or dose not given here.

Row | Binder | optical density [1] [OD] | optical density [2] [OD] | optical density [3] [OD]
1 | B1 | 3.69 | 2.57 | 2.74
2 | B2 | 3.48 | 2.77 | 2.98
3 | B3 | 3.49 | 2.51 | 2.47
4 | B4 | 3.65 | 2.18 | 2.27
5 | B5 | 3.35 | 2.01 | 2.04
6 | B6 | 3.67 | 2.48 | 2.47
7 | B7 | 3.52 | 2.25 | 2.6
8 | B8 | 3.61 | 2.14 | 2.35
9 | B9 | 3.38 | 2.04 | 2.04
10 | B10 | 3.37 | 1.87 | 2.07
11 | B11 | 3.56 | 2.56 | 2.67
12 | B12 | 3.02 | 2.35 | 2.42
13 | B13 | 3.29 | 2.27 | 2.73
14 | B14 | 3.6 | 2.59 | 2.63
15 | B15 | 3.65 | 2.82 | 2.69
16 | B16 | 3.52 | 3.32 | 3.31
17 | B17 | 3.62 | 2.49 | 2.45
18 | B18 | 3.5 | 2.1 | 2.37
